Measurements taken from patent US9505841B2, “Use of an anti-Ang2 antibody” (Samsung Electronics Co., Ltd., priority 2013, dated 2016).

Tests used:
ICAM-1 = assay: LPS-induced mRNA expression of ICAM-1 in HUVEC (qPCR); assay type: cell-based, human; conditions: 100 ng/ml LPS 5 hours, 0.2 ug/ml Ang1 or 0.1 ug/ml Ang2 + 0.5 ug/ml antibody
Description: To see anti-inflammatory effects by antibody 10D6, HUVEC (ATCC) cells (4×10^5) were treated with Ang2 alone or Ang2 together with antibody 10D6, and a group in which Ang1 and Ang2 (R&D systems) and Regeneron Co. antibody (RG antibody) were co-treated was included as a control group. HUVEC cells were treated with 0.2 ug/ml of Ang1, 0.1 ug/ml of Ang2, or 0.1 ug/ml of Ang2 and 0.5 ug/ml of antibody, respectively and after 30-min. pre-incubation, they were treated with 100 ng/ml of LPS (Sigma) to induce inflammatory response and incubated for 5 hours.
The degree of the inflammatory response was identified by measuring the mRNA expression degree of an inflammatory adhesion substance (ICAM-1, E-selectin). The cells were washed using PBS, RNA was extracted using RNeasy Mini kit (Qiagen), and among them, 2 ug of RNA was synthesized into cDNA using Transcriptor First Strand cDNA synthesis kit (Roche). qPCR reaction was performed using RT2 SYBR™ Green Mastermix (Qiagen) and LightCycler™ 480 Real-Time PCR System (Roche). As an internal control for calibrating the amount of RNA in a sample, HPRT1 was used, and qPCR complied with the following procedures with regard to all the primers.
Step 1: 95° C., 10 min; Step 2 (45 cycles): Step 2-1: 95° C., 15 sec; Step 2-2: 60° C., 1 min; Step 3: 65° C., 15 sec; Step 4: 95° C., continuous (every 20° C.); Step 6: 40° C., 10 sec.

[1] = tested on: human colorectal cancer cell line Colo205; assay: Colo205 colorectal cancer xenograft tumor growth; assay type: in vivo, mouse; conditions: BALB/c nude mice; 10 mg/kg intraperitoneal twice a week
Description: To see the tumor growth inhibitory effects of Ang2 antibody, a colorectal cancer xenograft model using a human colorectal cancer cell line Colo205 (ATCC) was employed.
The Colo205 cell line was cultured using 10% FBS (Gibco)-supplemented RPMI-1640 (Gibco) media. 5×10^5 of Colo205 cell line were re-suspended in 100 ul of serum-free media and then subcutaneously injected into anesthetic 4˜5-week-old BALB/c nude mice (Shanghai SLAC Laboratory Animal Co. Ltd.) anesthetized with 1-2% isoflurane. When the size of tumors reached 100˜200 mm^3, anti-Ang2 antibody (10D6) was injected at the concentration of 10 mg/kg via an intraperitoneal injection twice a week and the size of the tumors was measured.
The size of tumor (V) was calculated using the following formula: V=(length×width^2)/2

HUVEC monolayer = assay: In vitro vascular permeability assay (FITC-dextran); assay type: cell-based, human; conditions: 200 ng/ml Ang1 alone or 200 ng/ml Ang2 + 1 ug/ml 10D6
Description: To see the cell permeability suppression effects of antibody 10D6, in vitro vascular permeability assay kit (Millipore) was employed. HUVEC (ATCC) cells (5×10^4) were added to a collagen-coated transwell and cultured for 2 days to prepare a confluent monolayer. It was treated with 200 ng/ml of Ang2 or 200 ng/ml of Ang1 (R&D systems) alone, or 200 ng/ml of Ang2 and 1 ug/ml of antibody 10D6, pre-incubated for 30 min. and then, treated with 100 ng/ml of LPS (Lipopolysaccharide; Sigma) or 100 ng/ml TNF-a (R&D systems) to induce the permeability of HUVEC monolayer. LPS or TNF-a weakens binding between HUVEC cells to form a gap therebetween, thereby increasing the migration of materials in the HUVEC monolayer. After 6-hour incubation for the LPS treatment group and 22-hour incubation for the TNF-a group, the upper chamber was treated with FITC-dextran (Millipore) and incubated for 18 min. The fluorescence of FITC-dextran migrated to the lower chamber was measured at 485/535 nm (Ex/Em) setting using an Envision 2104 multilabel Reader (Perkinelmer).

Ang2-Tie2 binding = target: T1, Ang2-Tie2 binding (Homo sapiens, UniProt O15123); assay: Ang2-Tie2 binding competition ELISA; conditions: antibody 400 nM to 0.001 nM; 400 ng/ml FLAG-tagged hAng2; hTie2-Fc coated plate
T1 construct: purchased R&D Systems (hTie2-Fc)
T1 sequence (O15123 19-496): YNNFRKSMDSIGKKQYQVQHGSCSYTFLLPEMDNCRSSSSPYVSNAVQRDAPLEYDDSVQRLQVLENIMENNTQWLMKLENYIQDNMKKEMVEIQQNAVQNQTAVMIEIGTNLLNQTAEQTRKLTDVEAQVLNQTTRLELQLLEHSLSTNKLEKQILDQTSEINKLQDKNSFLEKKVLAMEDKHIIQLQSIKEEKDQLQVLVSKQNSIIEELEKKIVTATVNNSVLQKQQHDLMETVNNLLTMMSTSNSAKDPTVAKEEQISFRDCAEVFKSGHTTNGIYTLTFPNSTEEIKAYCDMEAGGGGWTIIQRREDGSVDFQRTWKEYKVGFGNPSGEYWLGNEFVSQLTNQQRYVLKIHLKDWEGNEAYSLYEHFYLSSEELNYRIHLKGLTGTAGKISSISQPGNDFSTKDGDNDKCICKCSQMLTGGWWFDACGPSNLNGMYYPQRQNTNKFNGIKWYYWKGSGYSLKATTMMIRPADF
Description: Ang2-Tie2 binding competition ELISA was conducted using the antibody binding to Ang2 prepared in Example 2-1 above.
More specifically, MaxiSorp™ flat-bottom plate (Nunc) of 96-well was coated with hTie2-Fc (R&D Systems) which is a protein bound with 4 ug (microgram)/ml of Fc of human IgG1. After that, the plate was washed five times with 0.05% (v/v) Tween-20-containing PBS (phosphate buffer saline) and then blocked with 1% (v/v) BSA (bovine serum albumin; Sigma)-containing PBS at a room temperature for 2 hour.
For Ang2:Tie2 competition ELISA, each anti-Ang2 antibody obtained in Example 2 was placed at various concentrations of 400 nM to 0.001 nM into each well coated with the hTie-2/Fc fusion protein along with 1% (v/v) BSA and 400 ng/ml of a FLAG-tagged hAng2 and then, the plate was allowed to react at a room temperature for 2 hours and washed five times with PBST. […] Lastly, 100 ul (microliter) of TMB substrate (Cell Signaling) was added to each well of the plate to induce color development for 3 min. and then, the reaction was ceased by the addition of 100 ul of Stop solution (Cell Signaling) and OD450 values were measured on a plate reader (Molecular Devices). […]

B1: 10D6: mouse anti-Ang2 monoclonal antibody from hybridoma KCLRF-BP-00295; heavy chain variable region SEQ ID NO: 7, light chain variable region SEQ ID NO: 9 (antibody, V domains shown)
VH: DVQLQESGPGLVKPSQSLSLTCTVTGYSITSDYAWNWIRQFPGNKLEWMGYINYSGNTDYNPSLKSRSSITRDTSKNQFFLQLNSVTTGDTATYYCARGNFEGAMDYWGQGTSVTVSS
VL: SIVMTQTPKFLLVSAGDRVTITCKASQSVSNDVAWYQQKPGQSPKLLIYYASNRYPGVPDRFTGSGYGTDFTFTISTVQAEDLAVYFCQQDYSSPWTFGGGTKLEIK
modifications: Synthetic (Heavy chain variable region of an anti-Ang2 antibody); Synthetic (Light chain variable region of anti-Ang2 antibody)
B1 was tested, and the “expression of ICAM-1 induced by LPS” value (ICAM-1) was “remarkably suppressed”, the “tumor growth in Colo205 xenograft” value [1] was “inhibited the growth of colorectal cancer” and the “vascular permeability increased by LPS” value (HUVEC monolayer; 100 ng/ml LPS, 6 hour) was “decreased to the control level”. For the same molecule, the “vascular permeability increased by TNF-a” value (HUVEC monolayer; 100 ng/ml TNF-a, 22 hour) was “decreased to the control level” and the “inhibition of Ang2-Tie2 binding” value (Ang2-Tie2 binding) was “did not inhibit”.
